Test results: US20220364069A1, “METHOD FOR THE PRODUCTION OF AN ENZYMATIC COMPOSITION COMPRISING A RECOMBINANT ENDOPEPTIDASE” (NEMYSIS LIMITED, priority 2019, published 2022)

Experiments:
[1] = tested on: gliadin (QPQLPY sequence); experiment: Gluten content of gliadin digests by Elisa-G12; assay type: biochemical, wheat
Description: Next it has been evaluated whether recombinant E40 enzymatic activity efficiently neutralizes: i) the capacity of gluten proteins to bind G12 antibodies, and ii) the stimulation of a T-cell-mediated immune response, measured by IFN-γ release. To this purpose, gliadin proteins were suspended in 1 ml of 0.1M ammonium acetate and digested with E40 alone, or with E40 co-incubated with the gastrointestinal proteases, pepsin and trypsin/chymotrypsin, at different pHs and time points, as detailed in Table 1.
All enzymes were added in w/w ratio 1:20 (enzyme:protein) and incubated at 37° C., at indicated pH and incubation time. E40/pepsin/chymotrypsin-digested gliadins were deamidated by tTGase (Sigma Aldrich), as previously described^4. Briefly, the enzymatic gliadin digests (500 μg/ml) were incubated with 2 U of guinea pig tTG (T-5398, Sigma, St. Louis, Mo., USA) at 37° C. for 2 hours in PBS with 1 mmol/L CaCl2.
To estimate the effect of E40 digestion on the immunological potential of wheat, gluten content of samples A-L was determined by monoclonal antibodies specific for QPQLPY sequence (Elisa-G12)^10.

gliadin = experiment: Digestion of whole gliadin monitored by RP-HPLC; assay type: biochemical, Triticum aestivum; settings: pH 4, 37° C., 30 min digestion
Description: The ability of E40 to hydrolyze harmful peptides in whole gliadin proteins was assessed by HPLC analysis (FIG. 6). Gliadin was extracted from whole flour of Triticum aestivum (Sagittario cultivar) according to Mamone et al^4. Gliadin (1 mg) was dissolved in 1 ml of 0.1 M ammonium acetate pH 4 and incubated with E40 enzymes (enzyme:substrate, 1:20), at 37° C. for different time points (0, 15, 30, 60, 120, 240 minutes). The enzymatic hydrolysis was stopped by boiling samples for 5 minutes. Samples were lyophilized and stored at −40° C. until further chemical analysis.
SDS-PAGE was performed on a Tetra-cell Mini-PROTEAN system (Bio-Rad, Milan, Italy). Digested gliadin samples were dissolved in Laemli buffer (0.125 M Tris-HCl pH 6.8, 5% SDS, 20% glycerol, 0.02% bromophenol blue) and loaded onto precast 12% acrylamide gel (Bio-Rad). Electrophoresis was carried out under non-reducing conditions, omitting β-mercaptoethanol in the Laemli buffer. Protein bands were visualized with silver blue (Coomassie Brilliant Blue G-250) and digitalized using a LABScan scanner (Amersham Bioscience/GE Healthcare, Uppsala, Sweden). RP-HPLC was carried out on a RP-HPLC using an HP 1100 Agilent Technology modular system (Palo Alto, Calif., USA). […] Eluent A was 0.1% TFA (v/v) in Milli-Q water, eluent B was 0.1% TFA (v/v) in acetonitrile. […] The column effluent was monitored at 220 and 280 nm with an UV-Vis detector. […]

[2] = Activity of culture supernatant toward sucAAPF-AMC at various pH; assay type: biochemical; settings: recombinant E40 culture supernatant
Description: FIG. 1. Activity of Actinoallomurus A8 culture supernatant fraction containing the native E40. A: relative activity toward the substrate sucAlaAlaProPhe-AMC (sucAAPF-AMC) at various pH values (the optimum —100% activity— is at pH 5). B: Gliadin digestion after 2 hours of incubation at 37° C., pH 3. Gel stained with Coomassie R250 brilliant blue; Lane 1: gliadin alone, lane 2: gliadin+E40-containing supernatant fraction.
FIG. 3. Recombinant E40 (SEQ ID NO: 2) obtained by S. lividans TK24/p1J86/e40 submerged fermentation, at flask scale (panels A-C) or in a 15 L bioreactor, followed by purification (panels D-E). A: activity toward the substrate sucAAPF-AMC at pH 5 of supernatant samples taken at different fermentation times (♦72, ▴96, ●168, ▪192 fermentation hours) from the producing S. lividans TK24/p1J86/E40 (E40, continuous line) and absence of activity of supernatant samples taken from the pIJ86-empty control strain (ctr, dashed lines). Activity is shown as relative fluorescent units (rfu, Y axis) produced in time (X axis). […] D: profile of an enzyme preparation comprising recombinant E40 purified from the 15 L fermentation; lane 1: final enzyme preparation comprising recombinant E40 stained with Coomassie (the arrow indicates recombinant E40), lane 2: zymography as in C, lane 3: band of gelatin hydrolysis after 2 hours of digestion at 37° C. and pH 5, visualized after Coomassie staining of the gelatin substrate. E: relative activity (%) of recombinant E40 in the purified enzyme preparation at different pH values (from 2 to 8), evaluated with the substrate suc-Ala-Ala-Pro-Phe-pNA.
As well as native E40, recombinant E40 was active in the pH range 3-6, with an optimum at pH 5 (FIG. 3, panel B).

[3] = tested on: CD4+ T-cell lines from intestinal biopsies of CD patients; experiment: IFN-γ production of gliadin reactive intestinal T-cell lines exposed to gliadin digests; assay type: cell-based, human; settings: samples A-H; digests at 50 and 100 μg/ml; 48 hours; assay sensitivity 32 pg/ml
Description: In order to evaluate the capability of gliadin preparations to activate a T-cell response, the different gliadin enzymatic digests (samples A-L in FIGS. 7A and 7B) deamidated by tTG treatment, were assayed on CD4+ T-cell lines previously established from intestinal biopsies of CD patients^11 (Table 3).
Briefly, intestinal mononuclear cells were stimulated with irradiated autologous peripheral blood mononuclear cells (PBMCs) and deamidated pepsin-chymotrypsin digested gliadin extracted from the hexaploid wheat. Growing T cells were kept in culture by repeated stimulation with heterologous irradiated PBMCs and PHA, and IL-2 as a growth factor. […] In the functional assays, the immune response of TCLs to gliadin enzymatic digests (samples A-L, Table 1 and FIGS. 7A and B) was assayed by detecting IFN-γ production. T cells (3×10^4) were co-incubated with irradiated autologous EBV-transformed, B-lymphoblastoid cell lines (B-LCLs, 1×10^5), in 200 μL of complete medium (X-Vivol5 supplemented with 5% human serum and penicillin-streptomycin antibiotics, all reagents supplied by Lonza-BioWhittaker, Verviers, Belgium) in U-bottom 96-well plates. After a 48 hours incubation, cell supernatants (50 μL) were collected for IFN-γ determination. […] IFN-γ was measured by a classic sandwich ELISA using purified and biotin-conjugated anti-IFN-γ Abs purchased from Mabtech (Nacka Strand, Sweden). […]

B1: E40: Actinoallomurus endopeptidase with glutenase activity, sequence comprising SEQ ID NO: 1; recombinant histidine-tagged form SEQ ID NO: 2 from S. lividans (protein)
chain: AAPSGLSPANLQSAYKLPSSTAGSGQTVAIVDAYDAPTAEADLNVYRSQFGLGACTTANGCFKKVDQNGGTSYPRKDGGWAQEISLDLDMVSAVCPNCKIVLVEAKTNSFANLGTAENTAASLANVISNSYGGSDASDASYGSYYNHPGKAITVSSGDAGYGVEYPASSHYVTAVGGTSLRTASTSRGWSETAWSGAGSGCSAYNTALSGQSGLTGCSRRAVADVSAVADPATGVAVYDSTAYQGQSGWMVFGGTSVAAPIIGGVYGLAANAASIDNNYPYAHTSSLFDVTSGSNGTCTTTKWCTAGTGWDGPTGLGTPNGTGAFGHHHHHH
modifications: Actinoallomurus
gluten content (Elisa-G12) ([1]; sample A: E40 (1 h) (pH 4)): 1.72 ppm (ng/mL)
gluten content (Elisa-G12) ([1]; sample B: E40 (2 h) (pH 4)): 2.26 ppm (ng/mL)
gluten content (Elisa-G12) ([1]; sample C: E40 + Pepsin (1 h) (pH 4)): 5.23 ppm (ng/mL)
gluten content (Elisa-G12) ([1]; sample D: E40 + Pepsin (2 h) (pH 4)): 5.42 ppm (ng/mL)
gluten content (Elisa-G12) ([1]; sample E: E40 + Pepsin (2 h) (pH 4), Trypsin + Chymotrypsin (2 h) (pH 6)): 4.09 ppm (ng/mL)
gluten content (Elisa-G12) ([1]; sample F: E40 + Pepsin (2 h) (pH 4), Trypsin + Chymotrypsin (4 h) (pH 6)): 2.68 ppm (ng/mL)
gluten content (Elisa-G12) ([1]; sample G: E40 + Pepsin (1 h) (pH 4), Trypsin + Chymotrypsin (2 h) (pH 6)): 1.68 ppm (ng/mL)
gluten content (Elisa-G12) ([1]; sample H: E40 + Pepsin (1 h) (pH 4), Trypsin + Chymotrypsin (4 h) (pH 6)): 2.05 ppm (ng/mL)
gluten content of E40 digested samples ([1]; samples from A to H): below 20 ppm
peaks assigned to gliadins after 30 min (gliadin): markedly reduced
pH range of activity [2]: 3-6
pH optimum of relative activity ([2]; 168 hours of fermentation, sucAAPF-AMC): 5
IFN-γ production of T cells exposed to E40-digested gliadins [3]: no detectable IFN-γ production
